From patent US20230174644A1

Target: Recombinant nucleolin fused with a polyhistidine (His)6 tag, made in Pichia GS115 (human) (UniProt P19338)
Test: SPR (BIAcore 2000), ES amine-coupled on a CM5 chip, NL 62.5-500 nM in flow, 25° C., 1:1 Langmuir model

Chain of UniProt P19338 (P19338 other isoform, or with tags, fused parts or gaps limits assumed): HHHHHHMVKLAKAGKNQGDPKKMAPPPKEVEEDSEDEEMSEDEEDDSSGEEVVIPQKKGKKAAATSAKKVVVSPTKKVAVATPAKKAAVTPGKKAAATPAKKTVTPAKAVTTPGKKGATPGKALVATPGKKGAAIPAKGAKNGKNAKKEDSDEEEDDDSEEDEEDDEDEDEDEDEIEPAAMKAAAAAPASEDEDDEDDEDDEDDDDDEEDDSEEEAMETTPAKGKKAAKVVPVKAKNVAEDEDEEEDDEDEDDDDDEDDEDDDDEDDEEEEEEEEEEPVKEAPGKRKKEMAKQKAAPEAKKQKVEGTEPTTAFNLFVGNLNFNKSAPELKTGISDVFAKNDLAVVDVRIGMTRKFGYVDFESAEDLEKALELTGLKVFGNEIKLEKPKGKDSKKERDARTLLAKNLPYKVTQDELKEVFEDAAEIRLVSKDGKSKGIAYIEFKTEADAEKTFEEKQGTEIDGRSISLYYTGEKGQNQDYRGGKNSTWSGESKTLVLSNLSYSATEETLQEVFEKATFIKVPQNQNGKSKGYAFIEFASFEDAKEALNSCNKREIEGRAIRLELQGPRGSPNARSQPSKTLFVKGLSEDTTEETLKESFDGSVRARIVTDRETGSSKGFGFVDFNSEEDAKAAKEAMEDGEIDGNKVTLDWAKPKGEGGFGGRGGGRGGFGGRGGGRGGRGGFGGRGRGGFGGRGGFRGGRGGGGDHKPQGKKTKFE

Work on “Endostatin (recombinant, with N-terminal His-tag) (from UniProt P39060 1572-1754) (ligand)” yielded a Kd of 23.2 nM.
